Patent publication US20260256915A1 (published 2026)
Changes are numbered by the printed parent chain.

T1: PRAME peptide on HLA-A*02:01 (human)
T1 peptide: SLLQHLIGL

B1: nwTCR-1953 (TCR, V domains shown)
Valpha: DAKTTQPNSMESNEEEPVHLPCNHSTISGTDYIHWYRQLPSQGPEYVIHGLTSNVNNRMASLAIAEDRKSSTLILHRATLRDAAVYYCILRAGGSGDKLTFGTGTRLAVRP
Vbeta: DTEVTQTPKHLVMGMTNKKSLKCEQHMGHRAMYWYKQKAKKPPELMFVYSYEKLSINESVPSRFSPECPNSSLLNLHLHALQPEDSALYLCASSQDPFWGAGELFFGEGSRLTVL
B2: nwTCR-2170 (TCR, V domains shown)
Valpha: GQQLNQSPQSMFIQEGEDVSMNCTSSSIFNTWLWYKQDPGEGPVLLIALYKAGELTSNGRLTAQFGITRKDSFLNISASIPSDVGIYFCAGQASGTYKYIFGTGTRLKVLA
Vbeta: EAQVTQNPRYLITVTGKKLTVTCSQNMNHEYMSWYRQDPGLGLRQIYYSMNVEVTDKGDVPEGYKVSRKEKRNFPLILESPSPNQTSLYFCASSSGTSDEQYFGPGTRLTVT
B3: nwTCR-2285 (TCR, V domains shown)
Valpha: KNEVEQSPQNLTAQEGEFITINCSYSVGISALHWLQQHPGGGIVSLFMLSSGKKKHGRLIATINIQEKHSSLHITASHPRDSAVYICALNSDSNYQLIWGAGTKLIIKP
Vbeta: B2 Vbeta with S93T, S95P, S98L, D99Y
B4: nwTCR-2157 (TCR, V domains shown)
Valpha: QKEVEQNSGPLSVPEGAIASLNCTYSDRGSQSFFWYRQYSGKSPELIMFIYSNGDKEDGRFTAQLNKASQYVSLLIRDSQPSDSATYLCAVPGGTSYGKLTFGQGTILTVHP
Vbeta: DTAVSQTPKYLVTQMGNDKSIKCEQNLGHDTMYWYKQDSKKFLKIMFSYNNKELIINETVPNRFSPKSPDKAHLNLHINSLELGDSAVYFCASSQGISGNTIYFGEGSWLTVV
B5: nwTCR-2169 (TCR, V domains shown)
Valpha: SQQGEEDPQALSIQEGENATMNCSYKTSINNLQWYRQNSGRGLVHLILIRSNEREKHSGRLRVTLDTSKKSSSLLITASRAADTASYFCATLTLNDYKLSFGAGTTVTVRA
Vbeta: EAQVTQNPRYLITVTGKKLTVTCSQNMNHEYMSWYRQDPGLGLRQIYYSMNVEVTDKGDVPEGYKVSRKEKRNFPLILESPSPNQTSLYFCATQWASGSTDTQYFGPGTRLTVL
B6: nwTCR-1954 (TCR, V domains shown)
Valpha: QKEVEQNSGPLSVPEGAIASLNCTYSDRGSQSFFWYRQYSGKSPELIMSIYSNGDKEDGRFTAQLNKASQYVSLLIRDSQPSDSATYLCAVLRSNDYKLSFGAGTTVTVRA
Vbeta: EAQVTQNPRYLITVTGKKLTVTCSQNMNHEYMSWYRQDPGLGLRQIYYSMNVEVTDKGDVPEGYKVSRKEKRNFPLILESPSPNQTSLYFCASSPGTSGNEQFFGPGTRLTVL
B7: nwTCR-2383 (TCR, V domains shown)
Valpha: GIQVEQSPPDLILQEGANSTLRCNFSDSVNNLQWFHQNPWGQLINLFYIPSGTKQNGRLSATTVATERYSLLYISSSQTTDSGVYFCAVMPSGTYKYIFGTGTRLKVLA
Vbeta: B6 Vbeta with G96S, T97S, S98G, G99Y
B8: nwTCR-2228 (TCR, V domains shown)
Valpha: QKEVEQNSGPLSVPEGAIASLNCTYSDRGSQSFFWYRQYSGKSPELIMFIYSNGDKEDGRFTAQLNKASQYVSLLIRDSQPSDSATYLCAGHTGNQFYFGTGTSLTVIP
Vbeta: EPEVTQTPSHQVTQMGQEVILRCVPISNHLYFYWYRQILGQKVEFLVSFYNNEISEKSEIFDDQFSVERPDGSNFTLKIRSTKLEDSAMYFCASREDGYEQYFGPGTRLTVT
B9: nwTCR-2316 (TCR, V domains shown)
Valpha: TQLLEQSPQFLSIQEGENLTVYCNSSSVFSSLQWYRQEPGEGPVLLVTVVTGGEVKKLKRLTFQFGDARKDSSLHITAAQPGDTGLYLCAGVDNYGQNFVFGPGTRLSVLP
Vbeta: DAGVIQSPRHEVTEMGQEVTLRCKPISGHNSLFWYRQTMMRGLELLIYFNNNVPIDDSGMPEDRFSAKMPNASFSTLKIQPSEPRDSAVYFCASSIAALGFGELFFGEGSRLTVL
B10: nwTCR-2159 (TCR, V domains shown)
Valpha: QQPVQSPQAVILREGEDAVINCSSSKALYSVHWYRQKHGEAPVFLMILLKGGEQKGHDKISASFNEKKQQSSLYLTASQLSYSGTYFCGTESGRGSTLGRLYFGRGTQLTVWP
Vbeta: DSGVTQTPKHLITATGQRVTLRCSPRSGDLSVYWYQQSLDQGLQFLIQYYNGEERAKGNILERFSAQQFPDLHSELNLSSLELGDSALYFCASSPWTSGSYEQYFGPGTRLTVT
B11: nwTCR-2286 (TCR, V domains shown)
Valpha: GQQLNQSPQSMFIQEGEDVSMNCTSSSIFNTWLWYKQDPGEGPVLLIALYKAGELTSNGRLTAQFGITRKDSFLNISASIPSDVGIYFCAGPEDDKIIFGKGTRLHILP
Vbeta: B10 Vbeta with T97L, S98Q, S100G, Y101N, Y104F, T114L
B12: nwTCR-2418 (TCR, V domains shown)
Valpha: DQQVKQNSPSLSVQEGRISILNCDYTNSMFDYFLWYKKYPAEGPTFLISISSIKDKNEDGRFTVFLNKSAKHLSLHIVPSQPGDSAVYFCAASGVRGQNFVFGPGTRLSVLP
Vbeta: B10 Vbeta with T97L, S98A, S100G, Y101R
B13: nwTCR-2081 (TCR, V domains shown)
Valpha: GEDVEQSLFLSVREGDSSVINCTYTDSSSTYLYWYKQEPGAGLQLLTYIFSNMDMKQDQRLTVLLNKKDKHLSLRIADTQTGDSAIYFCAESVGYGGSQGNLIFGKGTKLSVKP
Vbeta: KAGVTQTPRYLIKTRGQQVTLSCSPISGHRSVSWYQQTPGQGLQFLFEYFSETQRNKGNFPGRFSGRQFSNSRSEMNVSTLELGDSALYLCASSLEAGSFYEQYFGPGTRLTVT
B14: nwTCR-1906 (TCR, V domains shown)
Valpha: RKEVEQDPGPFNVPEGATVAFNCTYSNSASQSFFWYRQDCRKEPKLLMSVYSSGNEDGRFTAQLNRASQYISLLIRDSKLSDSATYLCVVTQAGTALIFGKGTTLSVSS
Vbeta: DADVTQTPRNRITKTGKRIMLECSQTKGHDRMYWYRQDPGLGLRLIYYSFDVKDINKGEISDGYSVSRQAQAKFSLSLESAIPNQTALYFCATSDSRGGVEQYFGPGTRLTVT
B15: nwTCR-2006 (TCR, V domains shown)
Valpha: AQSVTQLDSHVSVSEGTPVLLRCNYSSSYSPSLFWYVQHPNKGLQLLLKYTSAATLVKGINGFEAEFKKSETSFHLTKPSAHMSDAAEYFCVVSITGFQKLVFGTGTRLLVSP
Vbeta: GAVVSQHPSRVICKSGTSVKIECRSLDFQATTMFWYRQFPKQSLMLMATSNEGSKATYEQGVEKDKFLINHASLTLSTLTVTSAHPEDSSFYICSATEDNEKLFFGSGTQLSVL

Biological target: T1, PRAME peptide on HLA-A*02:01
Assay: multimer staining

Binding result, recognises:
B1
B2
B3
B4
B5
B6
B7
B8
B9
B10
B11
B12
B13
B14
B15
